System: hsRAG1 engineered meganuclease (I-CreI-derived) (artificial (I-CreI backbone, Chlamydomonas reinhardtii?))
Assay: cell_activity
Settings: HEK-293, meganuclease-driven targeted integration at RAG1; other lines 7-16%; indirect readout of cleavage

In the case of “human RAG1 locus meganuclease target site”, the activity (% targeted clones) is reported as 44.
